From patent US20250026823A1 (MERUS N V, published 2025) come the findings set out here.

Where a chain is given by its changes, count along the chain named.

Assay [1] has as its target T1, CLEC12A expressed on cells (CLEC12A-transfected CHO cells; HL60 cells) (UniProt Q5QGZ9 1-265, limits assumed).
T1 sequence (looked up): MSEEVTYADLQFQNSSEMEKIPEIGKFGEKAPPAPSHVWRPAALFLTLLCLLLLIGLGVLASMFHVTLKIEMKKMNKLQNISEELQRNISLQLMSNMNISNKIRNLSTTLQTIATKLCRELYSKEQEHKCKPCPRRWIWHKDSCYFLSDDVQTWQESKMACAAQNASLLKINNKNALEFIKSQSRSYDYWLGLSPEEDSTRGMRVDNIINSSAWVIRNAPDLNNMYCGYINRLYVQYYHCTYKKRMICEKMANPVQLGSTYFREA
Briefly: cell-based or functional assay.

Assay [2] deals with T1, CLEC12A expressed on cells …. Briefly: flow cytometry on CLEC12A-transfected CHO cells.
The target is the same in assay [3]. Kind of assay: flow cytometry on HL60 cells, optimized IgG concentration.
Assay [4] has as its target T2, extracellular domain of CLEC12A (amino acids 75 to 275) coupled to a His-tag (Sino Biological, cat.no. … (UniProt Q5QGZ9-1 75-275)).
T2 construct: range 75-275; Bought protein; also called coated CLEC12A; isolated extracellular domain of CLEC12A; not shown: His-tag
T2 sequence (looked up): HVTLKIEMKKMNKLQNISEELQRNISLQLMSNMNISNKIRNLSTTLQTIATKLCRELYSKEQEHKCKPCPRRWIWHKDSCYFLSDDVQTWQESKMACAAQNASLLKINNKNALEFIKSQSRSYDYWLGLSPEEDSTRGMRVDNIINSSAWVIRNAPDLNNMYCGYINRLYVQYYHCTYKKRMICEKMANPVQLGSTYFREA
Briefly: ELISA, extracellular domain of CLEC12A coated at 2 µg/ml. In general terms: ELISA stands for enzyme-linked immunosorbent assay.

B1: CD3XCLEC12A bsAb (3056x3116) with DM-Fc (bispecific antibody, V domains shown)
VH 1: QVQLVQSGGGVVQPGRSLRLSCVASGFTFSSYGMHWVRQAPGKGLEWVAAIWYNGRKQDYADSVKGRFTISRDNSKNTLYLQMNSLRAEDTAVYYCTRGTGYNWFDPWGQGTLVTVSS
VH 2: QVQLQESGPGLVKPSETLSLTCVVSGGSISSSNWWSWVRQPPGKGLEWIGEIYHSGSPDYNPSLKSRVTISVDKSRNQFSLKLSSVTAADTAVYYCAKVSTGGFFDYWGQGTLVTVSS
VL: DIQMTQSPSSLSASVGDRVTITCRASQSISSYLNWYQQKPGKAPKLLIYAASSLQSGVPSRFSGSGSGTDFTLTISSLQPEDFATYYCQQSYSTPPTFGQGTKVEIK
For the molecule B1, in assay [1], the “lysis of HL60 cells by AML patient derived T-cells (percentage of specific lysis relative to IgG)” value amounted to 68% and the “lysis of HL60 cells by healthy donor T cells (percentage of specific lysis relative to IgG)” value came out at 69%.

B2: CD3 monospecific antibody (3056x3056) (antibody, V domains shown)
VH: B1 VH 1
VL: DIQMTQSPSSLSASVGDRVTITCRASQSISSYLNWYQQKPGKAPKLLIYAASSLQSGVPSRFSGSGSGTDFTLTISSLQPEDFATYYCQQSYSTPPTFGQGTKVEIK
notes: Full length bivalent monoclonal IgG; also called CD3 IgG
In assay [2], B2 gave a mean fluorescent intensity of 282.

B3: CLEC12A monospecific antibody (3116x3116) (antibody, V domains shown)
VH: B1 VH 2
VL: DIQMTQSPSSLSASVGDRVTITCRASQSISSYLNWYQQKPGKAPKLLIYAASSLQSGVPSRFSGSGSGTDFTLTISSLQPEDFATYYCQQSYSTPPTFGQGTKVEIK
notes: Bivalent IgG; also called CLEC12A benchmark antibody; CLEC12A benchmark IgG
Consider B3, for which the mean fluorescent intensity in assay [2] is 4150; in assay [3] it was 1470. In assay [4], this molecule had an optical density of 1.42.

B4: candidate 3056x3116 CD3xCLEC12A bispecific IgG1 (bispecific antibody, V domains shown)
VH 1: B1 VH 1
VH 2: B1 VH 2
VL: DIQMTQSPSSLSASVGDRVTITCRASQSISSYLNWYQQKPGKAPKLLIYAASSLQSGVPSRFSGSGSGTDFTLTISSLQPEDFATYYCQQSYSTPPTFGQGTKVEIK
notes: Full length human IgG1 with wild type Fc and a common huVk1-39 light chain; The heavy chains were heterodimerised by known methods (Gunasekaran et al; WO2009/089004); also called CD3XCLEC12A WT Fc IgG1
In assay [2], B4 gave a mean fluorescent intensity of 5300.

B5: 4327 CLEC12A IgG (antibody, V domains shown)
VH: QVQLVQSGAEVKKPGASVKVSCKASGYTFTSYYMHWVRQAPGQGLEWMGIINPSGGSTSYAQKFQGRVTMTRDTSTSTVYMELSSLRSEDTAVYYCAKGTTGDWFDYWGQGTLVTVSS
VL: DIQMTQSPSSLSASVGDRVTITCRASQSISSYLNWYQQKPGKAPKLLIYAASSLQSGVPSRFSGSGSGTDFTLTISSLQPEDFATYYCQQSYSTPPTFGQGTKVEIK
notes: Full length human IgG1
In turn, B5 registered a mean fluorescent intensity in assay [3] of 1560. The molecule also came in with an optical density in assay [4] of 1.31.

B6: 4331 CLEC12A IgG (antibody, V domains shown)
VH: B5 VH with Q1E, K98R, T100N, T101Y, W104E
VL: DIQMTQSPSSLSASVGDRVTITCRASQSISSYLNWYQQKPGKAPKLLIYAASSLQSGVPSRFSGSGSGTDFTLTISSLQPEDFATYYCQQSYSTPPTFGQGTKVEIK
notes: Full length human IgG1
Take B6: the mean fluorescent intensity in assay [3] stood at 1110. In assay [4], this molecule returned an optical density of 1.33.
